We go through four substances from publication PMC4151990, “Tetrameric c-di-GMP Mediates Effective Transcription Factor Dimerization to Control Streptomyces Development” (Cell, 2014).

The target of one data set is T1, BldD (Streptomyces venezuelae, UniProt F2RCL8).
T1 construct: gene SVEN_1089; CTD (residues 80-166), purified from Sf9 cells
T1 sequence (F2RCL8 80-166): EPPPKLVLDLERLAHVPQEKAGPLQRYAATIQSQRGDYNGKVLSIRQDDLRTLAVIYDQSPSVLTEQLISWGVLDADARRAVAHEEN
Nature of the data set: fluorescence polarization. Format: binding. Background: In fluorescence polarisation assays a small probe gives low polarisation when free and higher when bound to something large.

The test system of data set [1] is T2, His6-BldD full length (Streptomyces venezuelae), ORF:0f1775d8.
T2 sequence: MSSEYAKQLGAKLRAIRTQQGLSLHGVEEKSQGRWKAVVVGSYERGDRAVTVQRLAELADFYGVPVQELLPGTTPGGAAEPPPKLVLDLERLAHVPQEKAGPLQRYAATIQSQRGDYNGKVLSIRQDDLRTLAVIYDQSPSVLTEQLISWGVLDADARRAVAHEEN
Nature of the data set: EMSA. The following applies: EMSA: 10 mM Tris pH 7.5, 1 mM EDTA, 5% glycerol, 10 mM NaCl, 1 mM MgCl2, 0.5 ug poly[d(I-C)] in 20 ul, 20 min room temperature; 5% PAGE in 0.5x TBE.

The target in data set [2] is His6-BldD-DBD (S. venezuelae BldD DNA-binding domain, residues 1-79) (Streptomyces venezuelae). Nature of the data set: cross-linking; 10 μM protein, 1 mM DSS, no c-di-GMP; 100 mM NaH2PO4, 150 mM NaCl, pH 8, room temperature 30 min; SDS-PAGE, Coomassie.

As usually defined, the Kd is the concentration at which binding is half-saturated. For orientation: stoichiometry N means the number of molecules, sites or subunits per partner or assembly.

Turning to “2′-O-(6-[Fluoresceinyl]aminohexylcarbamoyl)-cyclic diguanosine monophosphate [2′-Fluo-AHC-c-di-GMP]”, the affinity on BldD, expressed as Kd, was 2500 ± 600 nM.
For “CTAGCCACAGACACCGCGAAAAGGGAAGAAAACCCGCTAAATGGGGCATAGCTTTCGATGAACGACAGAAGGCTCGCGTCGCTCTCCTCTGTACGCGCCCCCTCACGTAGAGTGCCGAAGGGTGCCGTCCGACCCGTAACTCTTTCGAGTGACCGTCG (double strand) [bldM promoter fragment, 158 bp]”, in data set [1], the binding entry is “binds”.
Still for that read-out and setting: under “GTTCGAAGATGTGGCCGACGGCGTCCACCCGGAGCGGCGCTCTCCGCCGACGTTCGCGCACCGCGACCGCGCACTCACGCTACGCTCACCAGGATTCCGTCCAGGACACCCGCACCGACACACCCGACAGCAGAACGGCTCAAGGCAACGC (double strand) [whiG promoter fragment, 151 bp]” stands “binds”.
“His6-BldD-DBD (S. venezuelae BldD DNA-binding domain, residues 1-79) (domain or fragment)” registered a stoichiometry N in data set [2] of 2.
